We go through 91 sequences from the supplement of paper PMC9112550, “Optimization of the antimicrobial peptide Bac7 by deep mutational scanning” (BMC Biology, 2022).

The test system of the series is Escherichia coli TOP10. Description: shrunken log2 fold change of peptide-encoding DNA abundance (4.5 h post-induction vs induction); higher = less antimicrobial activity (less host growth inhibition). The note with it: time post-induction: 4.5 h; library: site-saturation at positions 5, 18, 19, 20.
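Also: peptides expressed intracellularly from a pBAD plasmid library in pooled LB shake-flask culture, induced with 0.3% L-arabinose, DNA abundance read by NGS, three biological replicates, DESeq2 with apeglm shrinkage.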

Take RRIRKRPPRLPRPRPRPQQTPRP: the “shrunken log2 fold change” value was -0.0533.
With RRIRDRPPRLPRPRPRPPSHPRP, the “shrunken log2 fold change” value was -0.203.
Consider RRIRQRPPRLPRPRPRPDWLPRP, for which the “shrunken log2 fold change” value is -0.102.
Then RRIRTRPPRLPRPRPRPMFIPRP, with -0.305.
As to RRIRKRPPRLPRPRPRPHCQPRP, the “shrunken log2 fold change” value stood at 0.101.
As for RRIRGRPPRLPRPRPRPKYEPRP, the “shrunken log2 fold change” value was determined as 0.56.
Then RRIRNRPPRLPRPRPRPEFVPRP, with 0.189.
On to RRIRWRPPRLPRPRPRPPMSPRP, for which the “shrunken log2 fold change” value came out at 0.095.
The value for RRIRTRPPRLPRPRPRPICQPRP was -0.0148.
The value for RRIRCRPPRLPRPRPRPYLLPRP was -0.559.
For RRIRWRPPRLPRPRPRPDMRPRP, the “shrunken log2 fold change” value came to 0.499.
RRIRWRPPRLPRPRPRPPEIPRP: the “shrunken log2 fold change” value is -0.0659.
The value for RRIRCRPPRLPRPRPRPMSCPRP was -0.0327.
The value for RRIRTRPPRLPRPRPRPATMPRP was -0.0723.
The value for RRIRKRPPRLPRPRPRPFPFPRP was -0.255; that for RRIRMRPPRLPRPRPRPMQQPRP was 1.38.
With RRIRIRPPRLPRPRPRPNVRPRP, the “shrunken log2 fold change” value stood at 0.0422.
With RRIRRRPPRLPRPRPRPPAGPRP, the “shrunken log2 fold change” value was found to be 0.753.
On to RRIRNRPPRLPRPRPRPMNKPRP, for which the “shrunken log2 fold change” value worked out at 0.0642.
With RRIRARPPRLPRPRPRPTIMPRP, the “shrunken log2 fold change” value came to 0.15.
As to RRIRQRPPRLPRPRPRPQRTPRP, the “shrunken log2 fold change” value worked out at 0.0128.
Take RRIRTRPPRLPRPRPRPVVFPRP: the “shrunken log2 fold change” value was -0.184.
Then RRIRRRPPRLPRPRPRPMELPRP, with 0.212.
In the case of RRIRDRPPRLPRPRPRPTSAPRP, the “shrunken log2 fold change” value was 0.418.
For the sequence RRIRGRPPRLPRPRPRPDDQPRP, the “shrunken log2 fold change” value turned out to be 1.92.
Then RRIRERPPRLPRPRPRPFKVPRP, with 0.14.
The value for RRIRNRPPRLPRPRPRPNGQPRP was -0.0686.
Take RRIRRRPPRLPRPRPRPHSAPRP: the “shrunken log2 fold change” value came out at 0.0905.
The value for RRIRARPPRLPRPRPRPRYMPRP was -0.365.
The value for RRIRTRPPRLPRPRPRPCGSPRP was 0.00855; that for RRIRMRPPRLPRPRPRPYEEPRP was -0.228.
The value for RRIRPRPPRLPRPRPRPAPIPRP was 0.0955; that for RRIRNRPPRLPRPRPRPDDSPRP was -0.263.
RRIRWRPPRLPRPRPRPEEPPRP: the “shrunken log2 fold change” value was 0.805.
Then RRIRRRPPRLPRPRPRPPWSPRP, with 0.421.
Then RRIRTRPPRLPRPRPRPETQPRP, with 0.205; and RRIRSRPPRLPRPRPRPREWPRP, with 0.759.
As to RRIRNRPPRLPRPRPRPHTKPRP, the “shrunken log2 fold change” value is -0.238.
Turning to RRIRARPPRLPRPRPRPPTCPRP, the “shrunken log2 fold change” value was 0.559.
For RRIRIRPPRLPRPRPRPTYMPRP, the “shrunken log2 fold change” value was -0.707.
The value for RRIRMRPPRLPRPRPRPSVFPRP was -0.0403; that for RRIRQRPPRLPRPRPRPLANPRP was -0.00739.
The value for RRIRFRPPRLPRPRPRPKYGPRP was -0.234; that for RRIRQRPPRLPRPRPRPIWHPRP was -0.204; that for RRIRERPPRLPRPRPRPLSMPRP was -0.242.
The value for RRIRRRPPRLPRPRPRPCWAPRP was 0.153; that for RRIRWRPPRLPRPRPRPIFYPRP was -0.0652; that for RRIRKRPPRLPRPRPRPWFPPRP was -0.0488.
Turning to RRIRSRPPRLPRPRPRPGWTPRP, the “shrunken log2 fold change” value is -0.0313.
The value for RRIRIRPPRLPRPRPRPYNVPRP was -0.291; that for RRIRCRPPRLPRPRPRPDAFPRP was 0.467; that for RRIRQRPPRLPRPRPRPLAPPRP was 0.38.
RRIRKRPPRLPRPRPRPHWVPRP: the “shrunken log2 fold change” value is -0.0562.
As for RRIRTRPPRLPRPRPRPEDTPRP, the “shrunken log2 fold change” value was -0.045.
As to RRIRYRPPRLPRPRPRPWPDPRP, the “shrunken log2 fold change” value was -0.137.
The value for RRIRDRPPRLPRPRPRPKRQPRP was -0.0603.
Take RRIRVRPPRLPRPRPRPVIKPRP: the “shrunken log2 fold change” value is -0.138.
Then RRIRDRPPRLPRPRPRPWCVPRP, with 0.083.
Then RRIRVRPPRLPRPRPRPGTGPRP, with 0.148; and RRIRCRPPRLPRPRPRPHHKPRP, with -0.857; and RRIRCRPPRLPRPRPRPVMDPRP, with -0.0102.
With RRIRPRPPRLPRPRPRPPIDPRP, the “shrunken log2 fold change” value came to 0.216.
Then RRIRGRPPRLPRPRPRPHAFPRP, with 0.372; and RRIRFRPPRLPRPRPRPVLLPRP, with -0.209.
The value for RRIRARPPRLPRPRPRPECAPRP was 1.5.
In the case of RRIRCRPPRLPRPRPRPEKWPRP, the “shrunken log2 fold change” value was -0.0207.
As to RRIRFRPPRLPRPRPRPSFYPRP, the “shrunken log2 fold change” value was -0.514.
As to RRIRSRPPRLPRPRPRPDGDPRP, the “shrunken log2 fold change” value was -0.197.
On to RRIRARPPRLPRPRPRPCGWPRP, for which the “shrunken log2 fold change” value stood at 0.365.
The value for RRIRQRPPRLPRPRPRPFMPPRP was -0.216; that for RRIRKRPPRLPRPRPRPQKMPRP was 0.0795; that for RRIRHRPPRLPRPRPRPGHIPRP was -0.282.
On to RRIRIRPPRLPRPRPRPMGTPRP, for which the “shrunken log2 fold change” value is -0.0384.
With RRIRHRPPRLPRPRPRPMCHPRP, the “shrunken log2 fold change” value is -0.00674.
The value for RRIRERPPRLPRPRPRPAVSPRP was 0.0433.
Regarding RRIRVRPPRLPRPRPRPRVPPRP, the “shrunken log2 fold change” value is -0.00723.
In the case of RRIRSRPPRLPRPRPRPKCHPRP, the “shrunken log2 fold change” value is -0.31.
The value for RRIRVRPPRLPRPRPRPEGKPRP was 0.217; that for RRIRERPPRLPRPRPRPMQTPRP was 0.0432; that for RRIRQRPPRLPRPRPRPPPVPRP was 0.607.
Take RRIRLRPPRLPRPRPRPTVLPRP: the “shrunken log2 fold change” value is -0.126.
Then RRIRLRPPRLPRPRPRPAVWPRP, with 0.72.
Consider RRIRVRPPRLPRPRPRPYCAPRP, for which the “shrunken log2 fold change” value was -0.229.
Take RRIRLRPPRLPRPRPRPEHDPRP: the “shrunken log2 fold change” value came out at 0.0235.
With RRIRRRPPRLPRPRPRPSIDPRP, the “shrunken log2 fold change” value was -0.107.
The value for RRIRKRPPRLPRPRPRPDPRPRP was 1.19; that for RRIRCRPPRLPRPRPRPECNPRP was -0.0881.
For RRIRTRPPRLPRPRPRPKQMPRP, the “shrunken log2 fold change” value worked out at 0.0252.
Then RRIRKRPPRLPRPRPRPIKPPRP, with 0.0885; and RRIRIRPPRLPRPRPRPAYEPRP, with -0.277; and RRIRHRPPRLPRPRPRPRWSPRP, with 0.00212.
